# Laboratory results reported in patent US20240417475A1.
# Tests used:
# [1] = molecular target: CD16A endogenously expressed on primary human NK cells (human) (UniProt P08637); test: flow cytometry on primary human NK cells at 37 °C, biotinylated antibody, streptavidin-FITC, without polyclonal human IgG
# [2] = molecular target: CD16A endogenously expressed on primary human NK cells (human) (UniProt P08637); test: flow cytometry on primary human NK cells, biotinylated antibody, 37 C, without IgG, mean of 4
# [3] = molecular target: CD16A endogenously expressed on primary human NK cells (human) (UniProt P08637); test: flow cytometry on primary human NK cells, biotinylated antibody, 37 C, with 10 mg/mL polyclonal human IgG as competitor, mean of 4
# [4] = molecular target: human CD16A-mFc (158F) (sAg_107) (human) (UniProt P08637); test: ELISA, plate coated with human CD16A-mFc (158F), anti-mouse HRP detection, A450
# [5] = molecular target: human CD16A-mFc (158F) (sAg_107) (human) (UniProt P08637); test: ELISA, plate coated with human CD16A-mFc (158F) (sAg_107), one-site fit, mean of 3
# [6] = molecular target: human CD16A-mFc (158V) (sAg_149) (human) (UniProt P08637); test: ELISA, plate coated with human CD16A-mFc (158V), anti-mouse HRP detection, A450
# Sequence of human CD16A-mFc (158V) (sAg_149) (human) (P08637 17-208 F176V limits assumed): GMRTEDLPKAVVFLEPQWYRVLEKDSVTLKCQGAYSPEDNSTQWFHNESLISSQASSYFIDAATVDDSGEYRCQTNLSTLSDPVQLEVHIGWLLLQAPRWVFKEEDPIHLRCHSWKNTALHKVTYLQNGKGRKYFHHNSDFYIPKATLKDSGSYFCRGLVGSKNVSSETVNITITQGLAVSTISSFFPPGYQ
# Sequence of CD16A endogenously expressed on primary human NK cells (human) (P08637 17-254 limits assumed): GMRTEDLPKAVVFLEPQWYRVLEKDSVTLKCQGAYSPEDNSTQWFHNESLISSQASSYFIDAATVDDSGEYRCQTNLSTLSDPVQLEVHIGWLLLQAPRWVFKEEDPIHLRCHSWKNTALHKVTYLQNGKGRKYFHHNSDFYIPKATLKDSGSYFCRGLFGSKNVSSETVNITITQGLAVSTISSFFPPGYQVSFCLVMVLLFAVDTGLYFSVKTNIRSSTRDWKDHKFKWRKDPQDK
# Sequence of human CD16A-mFc (158F) (sAg_107) (human) (P08637 17-208 limits assumed): as the sequence (P08637 17-208 F176V limits assumed) above, with V160F counted along it
substance,measurement,setting,value
anti-human CD16 antibody clone 3G8,EC50 (read off the curve),[1],300 pM
same,Kd,[2],300 pM
same,Kd,[3],54600 pM
same,EC50 (read off the curve),[4],30 pM
same,Kd,[5],20 pM
same,EC50 (read off the curve),[6],200 pM
